Data on two substances can be found in publication PMC5016662.

Test [1] has as its target recombinant F. hepatica cathepsin L2 (Fasciola hepatica). The experiment in a line: enzyme inhibition kinetics (fluorogenic substrate, Morrison tight-binding fit); inhibitor serially diluted (20 to 0.1 nM) against each cysteine protease; 50 mM citrate phosphate buffer pH 5.5, 2 mM DTT, 0.01% Brij L23; 37 °C; substrate at its Km; Ki worked out from the apparent Ki.
In test [2] the target is human cathepsin L (human). Described as above.
Test [3] has as its target human cathepsin K (human) (UniProt P43235). The test is described as above.
Test [4] concerns the target recombinant F. hepatica cathepsin L1 (Fasciola hepatica). The description is as above.
The target of test [5] is recombinant F. hepatica cathepsin L2 (Fasciola hepatica).
The target of test [6] is human cathepsin L (human).
For test [7], the target named is human cathepsin K (human) (UniProt P43235).
The target of test [8] is recombinant F. hepatica cathepsin L1 (Fasciola hepatica).
For test [9], the target named is bovine trypsin (bovine). The experiment in a line: enzyme inhibition kinetics (fluorogenic substrate, Morrison tight-binding fit); inhibitor serially diluted against trypsin (42 nM); 100 mM sodium phosphate buffer pH 7.6, 1 mM HCl, 20 mM Ca, 0.01% Brij L23; substrate Z-Leu-Arg-NHMec.
Test [10] concerns the target bovine trypsin (bovine).

human cathepsin K (human), sequence (P43235 115-329): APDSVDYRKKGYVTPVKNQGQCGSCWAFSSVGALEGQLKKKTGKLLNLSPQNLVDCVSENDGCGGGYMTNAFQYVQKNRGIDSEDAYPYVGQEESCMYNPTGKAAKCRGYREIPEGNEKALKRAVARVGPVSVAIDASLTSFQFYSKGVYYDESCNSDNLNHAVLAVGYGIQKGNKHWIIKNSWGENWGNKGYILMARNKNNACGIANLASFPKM

Regarding “recombinant Fasciola hepatica Kunitz-type protease inhibitor FhKT1 (natural protein)”, the Ki is 10 nM in [1], 1.6 nM in test [2], 5 nM in test [3] and 0.4 nM in [4]. Besides, the reduction of protease activity (fluorogenic substrate) by 300 nM rFhKT1 turned out to be 90.3% in test [5], 96.8% in test [6], 99.5% in [7] and 98.9% in test [8].
On to “recombinant FhKT1Leu15/Arg15 variant (natural protein)”, for which the Ki in test [1] stood at 27 nM; in test [2], 3 nM; in test [3] it was 10 nM; in test [4], 0.7 nM; in [9], 1.5 nM. Moreover, the reduction of trypsin activity (fluorogenic substrate) by 300 nM rFhKT1Leu15/Arg15 in test [10] is 88.9%.
